Here are results for two molecules from US20060257866, “Methods for identifying small molecules that modulate premature translation termination and nonsense mediated mrna decay” (published 2006).

Data set [1] deals with T1, Tat47-58 peptide (HIV-1 Tat) (HIV-1).
T1 chain: YGRKKRRQRRRP
The data set is described as follows: EMSA; TK buffer: 50 mM Tris-HCl pH 7.4, 20 mM KCl, 0.5 mM MgCl2, 0.1% Triton X-100; peptide 0.1-1.6 uM; annealed from 90 C to 24 C; gel at 4 C. As to conditions: protein: synthetic; label: 5'-fluorescein, 3'-32P cytidine bisphosphate; hairpin.

Data set [2] concerns the target T1, Tat47-58 peptide (HIV-1 Tat). The data set can be described thus: EMSA; capillary electrophoresis mobility shift; TK buffer 0.5 mM MgCl2; peptide 0.1-1.6 mM as printed. The settings on record: protein: synthetic; label: 5'-fluorescein; hairpin.

B1: HIV-1 TAR RNA oligonucleotide (ssRNA)
RNA: GGCAGAUCUGAGCCUGGGAGCUCUCUGCC
As to B1, the binding result in data set [1] was “binds”.

B2: HIV-1 TAR RNA oligonucleotide (fluorescein only) (ssRNA)
RNA: GGCAGAUCUGAGCCUGGGAGCUCUCUGCC
Turning to B2, in data set [2], the binding result is reported as “binds”.
